In patent US20250051788A1:

Experiments:
Assay in all cases: anti-FLAG IP-MS vs mock IP
[1] = target: Phosphoserine aminotransferase (PSAT) (AT4G35630) (Arabidopsis thaliana) (UniProt Q96255)
[2] = target: thioglucoside glucohydrolase 1 (TGG1) (AT5G26000) (Arabidopsis thaliana) (UniProt P37702)
[3] = target: Nodulin-related protein 1 (NRP1) (AT2G03440) (Arabidopsis thaliana) (UniProt Q9ZQ80)
[4] = target: Thioredoxin superfamily protein (ATHM2) (AT4G03520) (Arabidopsis thaliana) (UniProt Q9SEU8)
UniProt Q9SEU8, sequence (Q9SEU8 73-186): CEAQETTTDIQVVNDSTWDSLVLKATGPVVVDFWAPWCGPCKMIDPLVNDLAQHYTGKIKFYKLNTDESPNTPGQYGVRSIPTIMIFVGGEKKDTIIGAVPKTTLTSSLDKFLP

UniProt P37702, sequence (P37702 20-541 limits assumed): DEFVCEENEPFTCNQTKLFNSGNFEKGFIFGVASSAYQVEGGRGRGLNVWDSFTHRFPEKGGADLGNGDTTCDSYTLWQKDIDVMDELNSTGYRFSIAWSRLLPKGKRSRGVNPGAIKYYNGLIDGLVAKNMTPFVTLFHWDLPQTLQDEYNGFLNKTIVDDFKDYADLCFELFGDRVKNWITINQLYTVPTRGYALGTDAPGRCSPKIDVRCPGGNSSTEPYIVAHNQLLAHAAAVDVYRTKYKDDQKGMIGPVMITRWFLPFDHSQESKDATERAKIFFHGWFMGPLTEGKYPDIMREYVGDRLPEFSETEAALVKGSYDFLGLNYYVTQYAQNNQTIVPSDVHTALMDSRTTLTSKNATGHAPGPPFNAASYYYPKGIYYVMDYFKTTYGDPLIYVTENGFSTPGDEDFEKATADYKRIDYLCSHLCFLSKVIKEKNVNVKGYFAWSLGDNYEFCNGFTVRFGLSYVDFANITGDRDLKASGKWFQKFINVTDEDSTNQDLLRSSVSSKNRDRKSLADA
UniProt Q9ZQ80, sequence (Q9ZQ80 whole entry): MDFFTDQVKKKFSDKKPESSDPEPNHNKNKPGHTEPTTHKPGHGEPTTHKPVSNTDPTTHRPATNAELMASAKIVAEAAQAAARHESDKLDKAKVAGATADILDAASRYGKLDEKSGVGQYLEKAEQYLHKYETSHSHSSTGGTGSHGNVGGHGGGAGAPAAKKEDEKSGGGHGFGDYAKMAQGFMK
UniProt Q96255, sequence (Q96255 52-430): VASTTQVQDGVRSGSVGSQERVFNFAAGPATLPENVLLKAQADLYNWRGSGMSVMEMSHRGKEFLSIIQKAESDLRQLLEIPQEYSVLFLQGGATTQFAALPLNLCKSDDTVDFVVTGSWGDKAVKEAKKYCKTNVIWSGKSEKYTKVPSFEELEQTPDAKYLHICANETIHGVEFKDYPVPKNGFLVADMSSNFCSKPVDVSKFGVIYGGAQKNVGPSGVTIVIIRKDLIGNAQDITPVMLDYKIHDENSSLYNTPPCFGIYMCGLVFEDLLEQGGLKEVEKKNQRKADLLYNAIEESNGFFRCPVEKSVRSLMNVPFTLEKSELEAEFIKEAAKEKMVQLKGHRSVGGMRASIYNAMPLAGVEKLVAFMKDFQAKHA

“FLAG-BD (FLAG-tagged minimal Arabidopsis BRN1 protein that contains only the first two RRM domains) (from UniProt Q8LFS6 2-199)” was tested, and the Log2(FC) Replicate 1/ Mock [1] was 3.09 log2, the Log2(FC) Replicate 2/ Mock [1] was 3.17 log2 and the Log2(FC) Replicate 3/ Mock [1] was 1.81 log2. The Log2(FC) Replicate 4/ Mock [1] was 1.81 log2, the Log2(FC) Replicate 1/ Mock [2] was -0.214 log2 and the Log2(FC) Replicate 2/ Mock [2] was 0.697 log2. The Log2(FC) Replicate 3/ Mock [2] was 1.95 log2, the Log2(FC) Replicate 4/ Mock [2] was 1.84 log2 and the Log2(FC) Replicate 1/ Mock [3] was 2 log2. The Log2(FC) Replicate 2/ Mock [3] was 2.5 log2, the Log2(FC) Replicate 3/ Mock [3] was 1.74 log2 and the Log2(FC) Replicate 4/ Mock [3] was 1.87 log2. It also gave a Log2(FC) Replicate 1/ Mock [4] of 0.585 log2, a Log2(FC) Replicate 2/ Mock [4] of 2.17 log2 and a Log2(FC) Replicate 3/ Mock [4] of 3.39 log2. For the same substance, the Log2(FC) Replicate 4/ Mock [4] was 3.09 log2.
